Results from article PMC4937304.
Values joined by “and” are separate entries in the source; they are usually repeats but may differ in a detail not shown here. Equal values may be shown once.

Target: Snf1 (wild type) (S. cerevisiae (endogenous in yeast)) (UniProt P06782)
Experiment: pull-down

UniProt P06782, sequence (P06782 whole entry): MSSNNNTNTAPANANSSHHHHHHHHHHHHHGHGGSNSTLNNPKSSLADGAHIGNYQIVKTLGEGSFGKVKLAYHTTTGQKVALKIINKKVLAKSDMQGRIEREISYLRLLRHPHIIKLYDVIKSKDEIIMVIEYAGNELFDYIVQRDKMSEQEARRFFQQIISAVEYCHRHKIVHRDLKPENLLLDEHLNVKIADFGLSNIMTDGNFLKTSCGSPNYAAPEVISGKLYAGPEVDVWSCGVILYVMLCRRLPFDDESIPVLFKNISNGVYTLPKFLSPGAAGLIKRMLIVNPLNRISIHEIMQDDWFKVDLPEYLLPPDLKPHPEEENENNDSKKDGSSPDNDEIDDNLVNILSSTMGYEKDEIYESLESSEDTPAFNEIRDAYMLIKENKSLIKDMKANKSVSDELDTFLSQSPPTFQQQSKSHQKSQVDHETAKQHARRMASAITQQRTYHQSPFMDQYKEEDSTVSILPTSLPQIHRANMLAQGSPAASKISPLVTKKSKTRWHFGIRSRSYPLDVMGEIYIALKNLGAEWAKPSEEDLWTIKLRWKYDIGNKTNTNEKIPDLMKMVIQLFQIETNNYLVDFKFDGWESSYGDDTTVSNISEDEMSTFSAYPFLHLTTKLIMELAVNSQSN

Bmh (Bmh1 and Bmh2, collectively) (from UniProt P29311 1-267) (natural protein)
percent of Snf1 bound to Bmh: 30% and 50%
